# From publication PMC10349104
# Several values for one entry are separate records, joined by “and”; a condition that tells them apart may be missing. Equal values may be shown once. Read-outs that look alike come from different tables or passages of the source.
# B1: CCL14 (ligand)
# chain: TKTESSSRGPYHPSECCFTYTTYKIPRQRIMDYYETNSQCSKPGIVFITKRGHSVCTNPSDKWVQDYIKDMKEN
# modifications: not checked
# B2: CCL4, P13236 24-92 (ligand)
# chain: APMGSDPPTACCFSYTARKLPRNFVVDYYETSSLCSQPAVVFQTKRSKQVCADPSESWVQEYVYDLELN
# B3: CCL15 (ligand)
# chain: QFTNDAETELMMSKLPLENPVVLNSFHFAADCCTSYISQSIPCSLMKSYFETSSECSKPGVIFLTKKGRQVCAKPSGPGVQDCMKKLKPYSI
# modifications: not checked
# What was measured:
# [1] = molecular target: EVA-AAM1001 (Amblyomma americanum); test: SPR
# [2] = molecular target: EVA-A(Y44A) (Amblyomma americanum); test: SPR
# [3] = molecular target: EVA-A(C8) (Amblyomma americanum); test: SPR
# [4] = molecular target: EVA-A(L39P) (Amblyomma americanum); test: SPR
# [5] = molecular target: EVA-A(DN) (Amblyomma americanum); test: SPR
# EVA-4, P0C8E9 = molecular target: T1, EVA-4, P0C8E9; test: not stated; Kd of EVA-4 for human chemokines, three readings (source data of Supplementary Fig. 7); method and conditions not told for EVA-4
# T1 chain: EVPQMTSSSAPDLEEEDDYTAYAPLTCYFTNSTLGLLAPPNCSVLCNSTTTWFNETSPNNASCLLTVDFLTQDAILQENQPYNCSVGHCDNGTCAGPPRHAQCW
# [6] = remark: other sources report otherwise
binder,measurement,setting,value
B1,Kd,[1],0.0551 nM and 0.0372 nM and 0.0569 nM
same,koff,[1],6.24e-05 s⁻¹ and 5.52e-05 s⁻¹ and 6.41e-05 s⁻¹
same,kon,[1],1.1e+06 1/(M s) (2×) and 1.5e+06 1/(M s)
same,Kd,[2],0.12 nM and 0.125 nM and 0.0725 nM
same,koff,[2],6.21e-05 s⁻¹ and 5.76e-05 s⁻¹ and 3.35e-05 s⁻¹
same,kon,[2],519000 M⁻¹ s⁻¹ and 462000 M⁻¹ s⁻¹
same,Kd,[3],1.09 nM and 1.16 nM and 1.66 nM
same,koff,[3],0.000525 s⁻¹ and 0.00045 s⁻¹ and 0.000476 s⁻¹
same,kon,[3],482000 M⁻¹ s⁻¹ and 389000 M⁻¹ s⁻¹ and 288000 M⁻¹ s⁻¹
same,Kd,[4],0.0403 nM and 0.0431 nM and 0.0505 nM
same,Kd,[5],0.12 nM and 0.109 nM and 0.11 nM
same,koff,[5],8.54e-05 s⁻¹ and 7.6e-05 s⁻¹ and 7.69e-05 s⁻¹
same,kon,[5],714000 1/(M s) and 697000 1/(M s) (2×)
same,Kd,"EVA-4, P0C8E9",0.765 nM and 1.17 nM and 1.14 nM
B2,Kd,"EVA-4, P0C8E9; [6]",212 nM and 126 nM and 137 nM
B3,Kd,[1]; [6],1.7 nM and 1.77 nM and 1.85 nM
same,koff,[1]; [6],0.000308 s⁻¹ and 0.000311 s⁻¹ and 0.000314 s⁻¹
same,kon,[1]; [6],182000 M⁻¹ s⁻¹ and 175000 M⁻¹ s⁻¹ and 170000 M⁻¹ s⁻¹
same,Kd,[2]; [6],80.9 nM and 215 nM and 188 nM
same,koff,[2]; [6],0.00852 s⁻¹ and 0.0138 s⁻¹ and 0.0129 s⁻¹
same,kon,[2]; [6],105000 M⁻¹ s⁻¹ and 64300 M⁻¹ s⁻¹ and 68500 M⁻¹ s⁻¹
same,Kd,[3]; [6],714 nM and 467 nM and 550 nM
same,koff,[3]; [6],0.0149 s⁻¹ and 0.0104 s⁻¹ and 0.013 s⁻¹
same,kon,[3]; [6],20800 M⁻¹ s⁻¹ and 22300 M⁻¹ s⁻¹ and 23700 M⁻¹ s⁻¹
same,Kd,[4]; [6],26.9 nM and 23 nM and 29.8 nM
same,koff,[4]; [6],0.0026 s⁻¹ and 0.00246 s⁻¹ and 0.00303 s⁻¹
same,kon,[4]; [6],96500 M⁻¹ s⁻¹ and 107000 M⁻¹ s⁻¹ and 101000 M⁻¹ s⁻¹
same,Kd,[5]; [6],35.6 nM and 33.6 nM and 33 nM
same,koff,[5]; [6],0.00216 s⁻¹ and 0.00209 s⁻¹ and 0.00218 s⁻¹
same,kon,[5]; [6],60800 M⁻¹ s⁻¹ and 62100 M⁻¹ s⁻¹ and 66000 M⁻¹ s⁻¹
same,Kd,"EVA-4, P0C8E9",287 nM and 216 nM and 218 nM
